Publication PMC8277577

Target: C144 (human)
Assay: BLI

“SARS-CoV-2 receptor binding domain (RBD) (from UniProt P0DTC2 319-539) (domain or fragment)” was tested. Which Kd did it give?
The Kd was 0.149 µM.
